US20250034536, “POLYNUCLEOTIDES ENCODING ENGINEERED MEGANUCLEASES HAVING SPECIFICITY FOR RECOGNITION SEQUENCES IN THE DYSTROPHIN GENE” (Precision BioSciences, Inc., published 2025)

Columns and labels:
Assay in all cases: cell_activity; MRC5 cells, 2 ng mRNA; also active in CHO GFP reporter
Details in all cases: tags: N-terminal SV40 NLS
[1] = biological target: T1, DMD 35-36x.63 (synthetic construct)
T1 chain: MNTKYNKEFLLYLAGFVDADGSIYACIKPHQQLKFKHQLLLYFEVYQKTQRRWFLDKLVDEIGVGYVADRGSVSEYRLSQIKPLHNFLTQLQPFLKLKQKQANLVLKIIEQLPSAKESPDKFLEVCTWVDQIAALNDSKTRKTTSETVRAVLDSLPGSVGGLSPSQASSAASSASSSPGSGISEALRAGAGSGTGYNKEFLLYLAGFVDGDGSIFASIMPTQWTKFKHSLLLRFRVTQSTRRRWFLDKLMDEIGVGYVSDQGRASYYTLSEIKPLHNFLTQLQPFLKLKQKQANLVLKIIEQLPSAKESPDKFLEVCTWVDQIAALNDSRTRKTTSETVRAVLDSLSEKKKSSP
Description: (§1) In these experiments, 1e6 MRC5 cells were electroporated with 2 ng or 100 ng mRNA encoding DMD meganucleases (DMD 19-20x.13, DMD 19-20x.87, DMD 29-30x.18, DMD 29-30x.40, DMD 35-36x.63, DMD 35-36x.81, DMD 37-38x.15, DMD 37-38x.66, or DMD 37-38x.79), or GFP using the Lonza Amaxa 4D system. Cells were collected at two days post electroporation for gDNA preparation and evaluated for transfection efficiency using a Beckman Coulter CytoFlex S cytometer. Transfection efficiency exceeded 90%. Additional time points were collected at five- and eight-days post electroporation for gDNA extractions. gDNA was prepared using the Macherey Nagel NucleoSpin Blood QuickPure kit.

[2] = biological target: T2, DMD 35-36x.81 (synthetic construct)
T2 chain: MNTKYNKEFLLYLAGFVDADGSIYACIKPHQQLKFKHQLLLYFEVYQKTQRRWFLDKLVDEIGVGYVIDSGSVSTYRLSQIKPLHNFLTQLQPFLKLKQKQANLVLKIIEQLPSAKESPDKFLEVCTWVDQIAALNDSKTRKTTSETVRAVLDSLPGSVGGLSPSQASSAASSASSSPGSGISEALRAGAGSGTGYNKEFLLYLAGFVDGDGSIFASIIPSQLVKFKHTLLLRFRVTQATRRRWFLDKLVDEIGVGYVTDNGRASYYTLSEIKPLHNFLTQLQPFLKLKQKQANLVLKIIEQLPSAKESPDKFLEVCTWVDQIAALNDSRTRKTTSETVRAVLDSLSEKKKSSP
Description: as §1

[3] = biological target: T3, DMD 37-38x.79 (synthetic construct)
T3 chain: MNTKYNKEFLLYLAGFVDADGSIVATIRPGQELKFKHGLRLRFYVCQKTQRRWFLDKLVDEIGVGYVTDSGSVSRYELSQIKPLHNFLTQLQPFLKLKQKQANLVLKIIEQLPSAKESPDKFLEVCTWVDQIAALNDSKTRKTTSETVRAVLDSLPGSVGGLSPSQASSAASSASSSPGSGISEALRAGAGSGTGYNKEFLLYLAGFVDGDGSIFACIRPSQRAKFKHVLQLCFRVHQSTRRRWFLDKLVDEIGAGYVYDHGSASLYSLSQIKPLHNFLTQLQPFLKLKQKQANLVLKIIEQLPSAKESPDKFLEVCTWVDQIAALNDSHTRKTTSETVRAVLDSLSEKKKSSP
Description: as §1

[4] = biological target: T4, DMD 37-38x.66 (synthetic construct)
T4 chain: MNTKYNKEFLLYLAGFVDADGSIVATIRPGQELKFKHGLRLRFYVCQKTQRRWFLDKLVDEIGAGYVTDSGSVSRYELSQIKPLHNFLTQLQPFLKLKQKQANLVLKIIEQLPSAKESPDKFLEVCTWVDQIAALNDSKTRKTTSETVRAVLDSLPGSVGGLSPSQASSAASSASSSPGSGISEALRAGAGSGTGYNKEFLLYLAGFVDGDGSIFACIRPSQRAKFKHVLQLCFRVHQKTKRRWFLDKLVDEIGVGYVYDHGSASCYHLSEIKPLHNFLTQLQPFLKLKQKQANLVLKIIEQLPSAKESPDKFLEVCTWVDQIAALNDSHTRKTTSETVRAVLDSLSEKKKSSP
Description: as §1

[5] = biological target: T5, DMD 37-38x.15 (synthetic construct)
T5 chain: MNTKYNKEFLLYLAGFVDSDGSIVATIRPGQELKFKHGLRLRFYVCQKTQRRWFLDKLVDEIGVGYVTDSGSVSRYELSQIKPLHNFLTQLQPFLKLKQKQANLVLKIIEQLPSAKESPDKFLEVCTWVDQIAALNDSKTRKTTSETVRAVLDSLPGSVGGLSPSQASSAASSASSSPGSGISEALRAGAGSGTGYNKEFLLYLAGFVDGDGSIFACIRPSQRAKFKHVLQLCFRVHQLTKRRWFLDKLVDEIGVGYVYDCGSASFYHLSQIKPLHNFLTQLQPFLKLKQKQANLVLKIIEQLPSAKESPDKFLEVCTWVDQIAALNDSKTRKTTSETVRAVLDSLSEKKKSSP
Description: as §1

Binder	activity [1]	activity [2]	activity [3]	activity [4]	activity [5]
DMD 35-36 recognition sequence (dsDNA) DNA 1: CTACATGGTGTATCTGACTAAG DNA 2: CTTAGTCAGATACACCATGTAG	> 30 % indel	> 30 % indel	–	–	–
DMD 37-38 recognition sequence (dsDNA) DNA 1: CTGGCCGAAGTATAGGAATATG DNA 2: CATATTCCTATACTTCGGCCAG	–	–	> 30 % indel	> 30 % indel	> 30 % indel
